From US20060058504A1, “Peptides capable of inducing attraction to the axonal growth and their use for treating neurodegenerative diseases” (Centre National de la Recherche Scientific (CNRS), priority 2002, published 2006)
“Also recorded” adds a separate entry of the source.

Experiments:
F3, axonin-1 and TAX-1 [1] = conditions: F3, axonin-1 (and TAX-1 where stated); cited from earlier work
F3, axonin-1 and TAX-1 [2] = biological target: T1, F3, axonin-1 and TAX-1 (Homo sapiens, UniProt Q02246); conditions: TAX-1; cited from earlier work
T1 sequence (Q02246 31-1012): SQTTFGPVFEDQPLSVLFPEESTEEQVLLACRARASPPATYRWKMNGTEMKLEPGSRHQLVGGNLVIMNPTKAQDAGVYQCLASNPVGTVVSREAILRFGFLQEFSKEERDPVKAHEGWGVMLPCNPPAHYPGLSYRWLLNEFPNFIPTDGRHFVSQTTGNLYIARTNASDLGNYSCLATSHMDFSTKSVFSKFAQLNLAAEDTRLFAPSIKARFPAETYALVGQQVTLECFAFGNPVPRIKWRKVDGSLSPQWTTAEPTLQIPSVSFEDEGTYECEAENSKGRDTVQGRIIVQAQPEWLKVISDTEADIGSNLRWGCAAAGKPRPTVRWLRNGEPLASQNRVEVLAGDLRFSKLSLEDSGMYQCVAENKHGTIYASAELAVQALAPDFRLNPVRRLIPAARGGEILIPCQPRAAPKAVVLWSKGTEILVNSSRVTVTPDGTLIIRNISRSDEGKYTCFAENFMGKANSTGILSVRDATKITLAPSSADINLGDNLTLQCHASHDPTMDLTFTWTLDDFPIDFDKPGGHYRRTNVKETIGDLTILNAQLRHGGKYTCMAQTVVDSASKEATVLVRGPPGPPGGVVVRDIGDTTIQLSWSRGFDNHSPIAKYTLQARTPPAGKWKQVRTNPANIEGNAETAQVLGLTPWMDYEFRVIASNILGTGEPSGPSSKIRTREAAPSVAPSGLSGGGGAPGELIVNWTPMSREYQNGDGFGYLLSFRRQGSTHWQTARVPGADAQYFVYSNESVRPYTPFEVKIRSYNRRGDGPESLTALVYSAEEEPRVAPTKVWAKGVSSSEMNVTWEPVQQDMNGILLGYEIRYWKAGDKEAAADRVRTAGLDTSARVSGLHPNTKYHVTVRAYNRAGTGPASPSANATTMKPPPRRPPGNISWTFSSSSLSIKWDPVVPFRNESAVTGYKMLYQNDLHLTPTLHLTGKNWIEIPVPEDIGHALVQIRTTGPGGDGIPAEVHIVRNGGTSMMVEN

L1 = conditions: mutant bound to itself; cited from earlier work
NP-1 = test: Binding of L1Fc chimeras to NP-1 expressing COS7 cells (immunofluorescence)
Protocol: The mutant L1Fc chimeras were produced and purified as described previously (De Angelis et al., 1999). Briefly, COS-7 cells were transiently transfected with 10 μg DNA per 150 mm culture dish, the soluble Fc chimeric protein was allowed to accumulate in the media for 6 days and was recovered and purified by protein A-Sepharose affinity chromatography. In the binding experiments, L1Fcs were cross-linked to anti-human Fc antibodies (50 μg/ml, Jackson Immunoresearch) for 1 hr at 37° C. Binding detection to NP-1 requested concentrations of L1Fcs 10 folds higher than L1. Antibody conjugated L1-Fc protein was then incubated with monolayers of COS7 cells transiently transfected with expression vectors encoding full length human L1 or myc-tagged NP-1 where the cytoplasmic domain is deleted (gift of J. Raper, 2000 and Renzi et al., 1999). Following incubation, the cells were fixed with 4% PFA, and processed for double-immunofluorescence detection. NP-1 was detected using a mouse anti-c myc antibody (clone 9E10, Sigma) and L1 using a rat monoclonal anti-L1 antibody. Secondary antibody anti-c-myc (Texas-red conjugated anti-mouse antibodies) was used to detect NP-1, anti-L1 (Texas red conjugated anti-rat antibodies) to detect L1, and anti-Fc (FITC conjugated anti-rabbit antibodies) to detect bound L1Fc chimeras. After secondary antibody incubation, the cells were washed with PBS and mounted in Mowiol (Calbiochem).
Next, we examined the ability of the mutant L1 Fc chimeras to bind NP-1. COS7 cells were transfected with a vector encoding the extracellular and transmembrane domains of NP-1 fused to a myc tag (ANP-1, Renzi et al., J. Neurosci., 15:7870-7880, 1999), and incubated with the mutant L1Fc chimeras. Binding was detected by immunofluorescence. […] Binding of L120V, G121S and A426D L1Fcs to NP-1 is illustrated in FIG. 3.

[3] = system: cortical axons repelled by Sema3A secreted from the ventral spinal cord; test: Co-culture of cortical slices and ventral spinal cord explants (axon guidance response to Sema3A); format: cell-based, mice; conditions: chimera 3 μg/ml in culture medium
In short: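 Cortical slices from P0–P2 mice were co-cultured in a 3D plasma clot with ventral cervical spinal cord explants, alone or with L1Fc chimeras (3 μg/ml), ODQ (10^−5 M) or 7NI ([…]). After 1–2 DIV and PFA fixation, guidance was scored from −2 (repulsion) to +2 (attraction). Axon number and the three longest fibre lengths were measured in proximal and distal 600 μm regions.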

B1: D598N: L1Fc chimera with missense mutation D598N in Ig domain 6 (protein)
chain: IQIPEEYEGHHVMEPPVITEQSPRRLVVFPTDDISLKCEASGKPEVQFRWTRDGVHFKPKEELGVTVYQSPHSGSFTITGNNSNFAQRFQGIYRCFASNKLGTAMSHEIRLMAEGAPKWPKETVKPVEVEEGESVVLPCNPPPSAEPLRIYWMNSKILHIKQDERVTMGQNGNLYFANVLTSDNHSDYICHAHFPGTRTIIQKEPIDLRVKATNSMIDRKPRLLFPTNSSSHLVALQGQPLVLECIAEGFPTPTIKWLRPSGPMPADRVTYQNHNKTLQLLKVGEEDDGEYRCLAENSLGSARHAYYVTVEAAPYWLHKPQSHLYGPGETARLDCQVQGRPQPEVTWRINGIPVEELAKDQKYRIQRGALILSNVQPSDTMVTQCEARNRHGLLLANAYIYVVQLPAKILTADNQTYMAVQGSTAYLLCKAFGAPVPSVQWLDEDGTTVLQDERFFPYANGTLGIRDLQANDTGRYFCLAANDQNNVTIMANLKVKDATQITQGPRSTIEKKGSRVTFTCQASFDPSLQPSITWRGDGRDLQELGDSDKYFIEDGRLVIHSLDYSDQGNYSCVASTELNVVESRAQLLVVGSPGPVPRLVLSDLHLLTQSQVRVSWSPAEDHNAPIEKYDIEFEDKEMAPEKWYSLGKVPGNQTSTTLKLSPYVHYTFRVTAINKYGPGEPSPVSETVVTPEAAPEKNPVDVKGEGNETTNMVITWKPLRWMDWNAPQVQYRVQWRPQGTRGPWQEQIVSDPFLVVSNTSTFVPYEIKVQAVNSQGKGPEPQVTIGYSGEDYPQAIPELEGIEILNSSAVLVKWRPVDLAQVKGHLRGYNVTYWREGSQRKHSKRHIHKDHVVVPANTTSVILSGLRPYSSYHLEVQAFNGRGSGPASEFTFSTPEGVPGHPEALHLECQSNTSLLLRWQPPLSHNGVLTGYVLSYHPLDEGGKGQLSFNLRDPELRTHNLTDLSPHLRYRFQLQATTKEGPGEAIVREGGTMALSGISDFGNISATAGENYSVVSWVPKEGQCNFRFHILFKALGEEKGGASLSPQYVSYNQSSYTQWDLQPDTDYEIHLFKERMFRHQMAVKTNGTGRVRLPPAGFATE
modifications: left off: a dimerising Fc or GST
In the case of B1, the “effect of mutation on heterophilic binding” value (F3, axonin-1 and TAX-1 [1]) is given as “significantly reduces”, the “effect of mutation on heterophilic binding to TAX-1” value (F3, axonin-1 and TAX-1 [2]) is given as “though not to TAX-1” and the “effect of mutation on homophilic binding” value (L1) is given as “very modest effect”. For the same molecule, the “binding to NP-1 expressing cells” value (NP-1) was “bound NP-1 expressing cells” and the “switching of Sema3A repulsion to attraction by L1Fc chimera” value [3] was “able to reverse Sema3A repulsion to attraction; also recorded: efficiently induce switching of Sema3A repulsion to attraction; also recorded: switched Sema3A from repulsion to attraction to the same extent as wild type L1Fc”.
